Laboratory results reported in patent US20240084023A1 (NGM BIOPHARMACEUTICALS, published 2024).

Columns and labels:
Assay in all cases: flow cytometry on transfected 293XP cells
[1] = molecular target: T1, GCGR extracellular domain alanine mutant R111A (human, UniProt P47871 26-136, limits assumed)
T1 construct: expressed in 293XP cells
T1 chain: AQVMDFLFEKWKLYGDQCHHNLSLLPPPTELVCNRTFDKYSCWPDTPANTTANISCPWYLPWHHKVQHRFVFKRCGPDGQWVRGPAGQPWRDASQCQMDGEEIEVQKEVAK
Protocol: (§1) To assist in gathering information on the GCGR epitope that the 6B5 binning group bound to, “alanine scanning mutagenesis” was undertaken. These alanine scanning mutagenesis platform is a technique used for mapping both linear and conformational antigen epitopes by evaluating the effects of point mutations across a target protein. Single residues in a target protein are replaced by alanine one at a time to construct a mutant library. Each variant is assayed for its ability to bind to an antibody of interest. […] Amino acids across the extracellular domain of GCGR were mutated to alanine and the anti-GCGR antibody Hz6B5 was tested for binding to the alanine mutants.
(§2) The wild-type GCGR extracellular domain and the alanine mutants were each transfected into 293XP cells and incubated for 24 hours. Antibody Hz6B5 was incubated with the transfected cells for 30 minutes at 4° C. After washing with PBS/1% BSA/0.1% azide, the cells were incubated with a labeled anti-mouse Fc antibody (Jackson Immunoresearch) for 30 minutes at 4° C. After washing with PBS/1% BSA/0.1% azide, the cells were analyzed using a flow cytometer BD (FACSCalibur instrument) and cytometric analytical software (FlowJo). A serum sample from a mouse immunized with human GCGR was used as positive control to confirm expression of the alanine mutants.

[2] = molecular target: T2, GCGR extracellular domain alanine mutant K64A (human, UniProt P47871 26-136, limits assumed)
T2 construct: expressed in 293XP cells
T2 chain: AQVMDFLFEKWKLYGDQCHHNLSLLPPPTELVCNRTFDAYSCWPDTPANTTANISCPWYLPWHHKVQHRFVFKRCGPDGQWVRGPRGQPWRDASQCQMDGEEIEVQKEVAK
Protocol: as §1, §2

[3] = molecular target: T3, GCGR extracellular domain alanine mutant Y39A (human, UniProt P47871 26-136, limits assumed)
T3 construct: expressed in 293XP cells
T3 chain: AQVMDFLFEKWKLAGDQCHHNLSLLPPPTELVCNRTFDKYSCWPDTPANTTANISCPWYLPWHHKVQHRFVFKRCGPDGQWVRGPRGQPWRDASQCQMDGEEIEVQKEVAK
Protocol: as §1, §2

[4] = molecular target: T4, GCGR extracellular domain alanine mutant K98A (human, UniProt P47871 26-136, limits assumed)
T4 construct: expressed in 293XP cells
T4 chain: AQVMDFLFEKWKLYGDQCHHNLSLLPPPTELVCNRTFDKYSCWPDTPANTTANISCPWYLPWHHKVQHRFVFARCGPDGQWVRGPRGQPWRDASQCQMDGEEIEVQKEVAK
Protocol: as §1, §2

[5] = molecular target: T5, GCGR extracellular domain alanine mutant R116A (human, UniProt P47871 26-136, limits assumed)
T5 construct: expressed in 293XP cells
T5 chain: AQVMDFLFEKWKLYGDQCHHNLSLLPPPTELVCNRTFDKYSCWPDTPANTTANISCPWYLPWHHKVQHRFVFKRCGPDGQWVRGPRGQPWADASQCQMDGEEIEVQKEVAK
Protocol: as §1, §2

[6] = molecular target: T6, GCGR extracellular domain alanine mutant L50A (human, UniProt P47871 26-136, limits assumed)
T6 construct: expressed in 293XP cells
T6 chain: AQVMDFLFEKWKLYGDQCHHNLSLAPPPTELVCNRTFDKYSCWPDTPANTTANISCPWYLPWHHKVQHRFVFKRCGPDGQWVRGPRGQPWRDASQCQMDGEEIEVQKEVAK
Protocol: as §1, §2

[7] = molecular target: T7, GCGR extracellular domain alanine mutant W87A (human, UniProt P47871 26-136, limits assumed)
T7 construct: expressed in 293XP cells
T7 chain: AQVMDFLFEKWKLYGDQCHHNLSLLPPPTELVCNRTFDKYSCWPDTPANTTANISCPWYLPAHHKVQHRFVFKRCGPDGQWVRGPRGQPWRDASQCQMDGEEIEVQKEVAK
Protocol: as §1, §2

[8] = molecular target: T8, GCGR extracellular domain alanine mutant W106A (human, UniProt P47871 26-136, limits assumed)
T8 construct: expressed in 293XP cells
T8 chain: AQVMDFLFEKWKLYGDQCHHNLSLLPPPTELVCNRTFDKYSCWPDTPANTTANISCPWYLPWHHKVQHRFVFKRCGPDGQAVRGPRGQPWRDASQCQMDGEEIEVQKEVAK
Protocol: as §1, §2

[9] = molecular target: T9, GCGR extracellular domain alanine mutant H45A (human, UniProt P47871 26-136, limits assumed)
T9 construct: expressed in 293XP cells
T9 chain: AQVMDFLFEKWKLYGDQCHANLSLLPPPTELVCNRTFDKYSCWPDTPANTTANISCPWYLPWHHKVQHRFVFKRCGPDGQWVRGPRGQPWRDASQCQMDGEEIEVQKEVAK
Protocol: as §1, §2

[10] = molecular target: T10, GCGR extracellular domain alanine mutant D41A (human, UniProt P47871 26-136, limits assumed)
T10 construct: expressed in 293XP cells
T10 chain: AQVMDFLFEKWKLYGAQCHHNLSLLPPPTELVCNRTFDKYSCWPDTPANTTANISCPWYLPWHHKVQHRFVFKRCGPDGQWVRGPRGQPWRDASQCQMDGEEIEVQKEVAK
Protocol: as §1, §2

[11] = molecular target: T11, GCGR extracellular domain alanine mutant L85A (human, UniProt P47871 26-136, limits assumed)
T11 construct: expressed in 293XP cells
T11 chain: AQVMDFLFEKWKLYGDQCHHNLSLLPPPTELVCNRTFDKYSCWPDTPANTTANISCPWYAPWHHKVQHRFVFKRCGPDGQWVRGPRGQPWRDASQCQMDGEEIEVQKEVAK
Protocol: as §1, §2

[12] = molecular target: T12, GCGR extracellular domain alanine mutant T75A (human, UniProt P47871 26-136, limits assumed)
T12 construct: expressed in 293XP cells
T12 chain: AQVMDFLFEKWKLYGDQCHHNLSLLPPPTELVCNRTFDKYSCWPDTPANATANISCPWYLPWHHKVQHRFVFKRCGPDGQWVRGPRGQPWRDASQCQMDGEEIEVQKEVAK
Protocol: as §1, §2

[13] = molecular target: T13, GCGR extracellular domain alanine mutant Y65A (human, UniProt P47871 26-136, limits assumed)
T13 construct: expressed in 293XP cells
T13 chain: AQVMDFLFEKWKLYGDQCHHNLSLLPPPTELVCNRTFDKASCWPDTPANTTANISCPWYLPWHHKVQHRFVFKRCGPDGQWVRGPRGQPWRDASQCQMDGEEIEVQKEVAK
Protocol: as §1, §2

B1: anti-GCGR antibody Hz6B5 (antibody, V domains shown)
VH: QVQLVQSGAEVKKPGSSVKVSCKASGFTFTNHWLGWVRQAPGQGLEWIGDIYPGGYYINYNEKFKGRVTITADESTSTAYMELSSLRSEDTAVYYCARHTNYGSDYWGQGTTVTVSS
VL: DVVMTQSPLSLPVTLGQPASISCRSSQSIVDSYGNTFLEWYQQRPGQSPRLLIYKVSNRLSGVPDRFSGSGSGTDFTLKISRVEAEDVGVYYCFQGSHVPWTFGQGTKLEIK
notes: Humanized 6B5
[1]
  % positive cells: 84.5%
[2]
  % positive cells: 87.6%
[3]
  % positive cells: 65.8%
[4]
  % positive cells: 82.5%
[5]
  % positive cells: 85.9%
[6]
  % positive cells: 86.6%
[7]
  % positive cells: 74.7%
[8]
  % positive cells: 60.8%
[9]
  % positive cells: 81.3%
[10]
  % positive cells: 84.3%
[11]
  % positive cells: 11.7%
[12]
  % positive cells: 84.9%
[13]
  % positive cells: 64.8%
